Results: patent publication US20200016315A1 (SYDDANSK UNIVERSITET, published 2020)

Columns and labels:
[1] = target: T1, hemoglobin (human, UniProt P69905 2-142; P68871 2-147); test: raw plasma without added hemoglobin mixed with equal volume of protein-Sepharose, supernatant on Cobas 6000; not corrected for dilution; no Sepharose 7, sham Sepharose 0
T1 construct: also called Hb; human Hb

[2] = target: T1, hemoglobin; test: plasma with 3 g/l added hemoglobin mixed with equal volume of protein-Sepharose, supernatant on Cobas 6000; not corrected for dilution; no Sepharose 80, sham Sepharose 25

B1: IsdH^N1 (residues 86-229) with N-terminal His6 tag and thrombin cleavage site (receptor)
chain: DIGPREQVNFQLLDKNNETQYYHFFSIKDPADVYYTKKKAEVELDINTASTWKKFEVYENNQKLPVRLVSYSPVPEDHAYIRFPVSDGTQELKIVSSTQIDDGEETNYDYTKLVFAKPIYNDPSL
modifications: coupled through primary amines to CNBr-activated Sepharose
notes: also called N1 Seph; not shown: added N-terminal His6 tag and thrombin cleavage site
[1]
  H-index of supernatant (hemoglobin left after removal): 0 mg/dL
[2]
  H-index of supernatant (hemoglobin left after removal): 29 mg/dL

B2: IsdH N1N2N3 (residues 82-655), wild type (receptor)
chain: NYPAADESLKDAIKDPALENKEHDIGPREQVNFQLLDKNNETQYYHFFSIKDPADVYYTKKKAEVELDINTASTWKKFEVYENNQKLPVRLVSYSPVPEDHAYIRFPVSDGTQELKIVSSTQIDDGEETNYDYTKLVFAKPIYNDPSLVKSDTNDAVVTNDQSSSVASNQTNTNTSNQNISTINNANNQPQATTNMSQPAQPKSSTNADQASSQPAHETNSNGNTNDKTNESSNQSDVNQQYPPADESLQDAIKNPAIIDKEHTADNWRPIDFQMKNDKGERQFYHYASTVEPATVIFTKTGPIIELGLKTASTWKKFEVYEGDKKLPVELVSYDSDKDYAYIRFPVSNGTREVKIVSSIEYGENIHEDYDYTLMVFAQPITNNPDDYVDEETYNLQKLLAPYHKAKTLERQVYELEKLQEKLPEKYKAEYKKKLDQTRVELADQVKSAVTEFENVTPTNDQLTDLQEAHFVVFESEENSESVMDGFVEHPFYTATLNGQKYVVMKTKDDSYWKDLIVEGKRVTTVSKDPKNNSRTLIFPYIPDKAVYNAIVKVVVANIGYEGQYHVRIINQDI
modifications: coupled through primary amines to CNBr-activated Sepharose
notes: In the assay the protein was immobilized on Sepharose; also called IsdH N1N2N3 wt; N1N2N3-Seph; not shown: vector-encoded His6 tag of pET-15b
[1]
  H-index of supernatant (hemoglobin left after removal): 0 mg/dL
[2]
  H-index of supernatant (hemoglobin left after removal): 12 mg/dL

B3: IsdH N1N2N3 Y642A (receptor)
chain: NYPAADESLKDAIKDPALENKEHDIGPREQVNFQLLDKNNETQYYHFFSIKDPADVYYTKKKAEVELDINTASTWKKFEVYENNQKLPVRLVSYSPVPEDHAYIRFPVSDGTQELKIVSSTQIDDGEETNYDYTKLVFAKPIYNDPSLVKSDTNDAVVTNDQSSSVASNQTNTNTSNQNISTINNANNQPQATTNMSQPAQPKSSTNADQASSQPAHETNSNGNTNDKTNESSNQSDVNQQYPPADESLQDAIKNPAIIDKEHTADNWRPIDFQMKNDKGERQFYHYASTVEPATVIFTKTGPIIELGLKTASTWKKFEVYEGDKKLPVELVSYDSDKDYAYIRFPVSNGTREVKIVSSIEYGENIHEDYDYTLMVFAQPITNNPDDYVDEETYNLQKLLAPYHKAKTLERQVYELEKLQEKLPEKYKAEYKKKLDQTRVELADQVKSAVTEFENVTPTNDQLTDLQEAHFVVFESEENSESVMDGFVEHPFYTATLNGQKYVVMKTKDDSYWKDLIVEGKRVTTVSKDPKNNSRTLIFPYIPDKAVYNAIVKVVVANIGAEGQYHVRIINQDI
modifications: coupled through primary amines to CNBr-activated Sepharose
notes: also called N1N2N3-Y642A-Seph; Y642A mutant; not shown: vector-encoded His6 tag of pET-15b
[1]
  H-index of supernatant (hemoglobin left after removal): 0 mg/dL
[2]
  H-index of supernatant (hemoglobin left after removal): 8 mg/dL
